Paper PMC9975078

Target: Heterogeneous nuclear ribonucleoprotein A2/B1 (HNRNPA2B1), endogenous (human (endogenous in U2OS))
Sequence (P22626 whole entry): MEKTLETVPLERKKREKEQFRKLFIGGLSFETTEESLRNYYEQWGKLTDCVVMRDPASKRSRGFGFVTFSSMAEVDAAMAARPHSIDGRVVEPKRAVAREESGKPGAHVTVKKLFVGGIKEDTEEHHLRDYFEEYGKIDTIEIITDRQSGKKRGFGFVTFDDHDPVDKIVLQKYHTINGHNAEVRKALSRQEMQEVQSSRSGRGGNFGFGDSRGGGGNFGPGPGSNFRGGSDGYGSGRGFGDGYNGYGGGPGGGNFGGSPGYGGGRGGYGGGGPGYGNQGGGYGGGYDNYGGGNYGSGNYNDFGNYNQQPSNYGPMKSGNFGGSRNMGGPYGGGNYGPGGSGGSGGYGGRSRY

percent of RPA1 bound by HNRNPA2B1: 43%
Substance: Replication Protein A subunit RPA70 (RPA1), endogenous (from UniProt P27694 1-616) (natural protein)
